Numbered stars: 1 amine (or outer) side, 2 acyl side, 3 side chain; on linkers, the order of the positions; unused ones are H or OH. Square brackets hold non-standard residues; d marks the D form. Side chains are listed from the residue outwards. Ends that are not written are not given here. * marks the point of attachment. C18 diacid = O=C(O)CCCCCCCCCCCCCCCCC(=O)*; γGlu = O=C(O)[C@H](CCC(=O)[*:2])N[*:1]; AEEA = NCCOCCOCC(=O)O; Aib = CC(C)(N)C(=O)O
B1: N^ε28-[(4S)-4-carboxy-4-[[(4S)-4-carboxy-4-[[2-[2-[2-[[2-[2-[2-[[(4S)-4-carboxy-4-(17-carboxyheptadecanoylamino)butanoyl]amino]ethoxy]ethoxy]acetyl]amino]ethoxy … (peptide)
peptide: H[Aib]QGTFTSDLSKYLDSRRARDFVQWLLK([γGlu-γGlu-AEEA-AEEA-γGlu-C18 diacid])T-NH2
modifications: N-terminus assumed
SMILES: CC(C)C[C@H](NC(=O)[C@H](Cc1ccc(O)cc1)NC(=O)[C@H](CCCCN)NC(=O)[C@H](CO)NC(=O)[C@H](CC(C)C)NC(=O)[C@H](CC(=O)O)NC(=O)[C@H](CO)NC(=O)[C@@H](NC(=O)[C@H](Cc1ccccc1)NC(=O)[C@@H](NC(=O)CNC(=O)[C@H](CCC(N)=O)NC(=O)C(C)(C)NC(=O)[C@@H](N)Cc1c[nH]cn1)[C@@H](C)O)[C@@H](C)O)C(=O)N[C@@H](CC(=O)O)C(=O)N[C@@H](CO)C(=O)N[C@@H](CCCNC(=N)N)C(=O)N[C@@H](CCCNC(=N)N)C(=O)N[C@@H](C)C(=O)N[C@@H](CCCNC(=N)N)C(=O)N[C@@H](CC(=O)O)C(=O)N[C@@H](Cc1ccccc1)C(=O)N[C@H](C(=O)N[C@@H](CCC(N)=O)C(=O)N[C@@H](Cc1c[nH]c2ccccc12)C(=O)N[C@@H](CC(C)C)C(=O)N[C@@H](CC(C)C)C(=O)N[C@@H](CCCCNC(=O)CC[C@H](NC(=O)CC[C@H](NC(=O)COCCOCCNC(=O)COCCOCCNC(=O)CC[C@H](NC(=O)CCCCCCCCCCCCCCCCC(=O)O)C(=O)O)C(=O)O)C(=O)O)C(=O)N[C@H](C(N)=O)[C@@H](C)O)C(C)C
B2: N^ε21-(4S)-4-carboxy-4-[[(4S)-4-carboxy-4-[[2-[2-[2-[[2-[2-[2-[[(4S)-4-carboxy-4-(17-carboxyheptadecanoylamino)butanoyl]amino]ethoxy]ethoxy]acetyl]amino]ethoxy] … (peptide)
peptide: H[Aib]QGTFTSDLSKYLDSRRARK([γGlu-γGlu-AEEA-AEEA-γGlu-C18 diacid])FVQWLLST-NH2
modifications: N-terminus assumed
SMILES: CC(C)C[C@H](NC(=O)[C@H](Cc1ccc(O)cc1)NC(=O)[C@H](CCCCN)NC(=O)[C@H](CO)NC(=O)[C@H](CC(C)C)NC(=O)[C@H](CC(=O)O)NC(=O)[C@H](CO)NC(=O)[C@@H](NC(=O)[C@H](Cc1ccccc1)NC(=O)[C@@H](NC(=O)CNC(=O)[C@H](CCC(N)=O)NC(=O)C(C)(C)NC(=O)[C@@H](N)Cc1c[nH]cn1)[C@@H](C)O)[C@@H](C)O)C(=O)N[C@@H](CC(=O)O)C(=O)N[C@@H](CO)C(=O)N[C@@H](CCCNC(=N)N)C(=O)N[C@@H](CCCNC(=N)N)C(=O)N[C@@H](C)C(=O)N[C@@H](CCCNC(=N)N)C(=O)N[C@@H](CCCCNC(=O)CC[C@H](NC(=O)CC[C@H](NC(=O)COCCOCCNC(=O)COCCOCCNC(=O)CC[C@H](NC(=O)CCCCCCCCCCCCCCCCC(=O)O)C(=O)O)C(=O)O)C(=O)O)C(=O)N[C@@H](Cc1ccccc1)C(=O)N[C@H](C(=O)N[C@@H](CCC(N)=O)C(=O)N[C@@H](Cc1c[nH]c2ccccc12)C(=O)N[C@@H](CC(C)C)C(=O)N[C@@H](CC(C)C)C(=O)N[C@@H](CO)C(=O)N[C@H](C(N)=O)[C@@H](C)O)C(C)C
B3: N^ε24-[(4S)-4-carboxy-4-[[(4S)-4-carboxy-4-[[2-[2-[2-[[2-[2-[2-[[(4S)-4-carboxy-4-(17-carboxyheptadecanoylamino)butanoyl]amino]ethoxy]ethoxy]acetyl]amino]ethoxy … (peptide)
peptide: H[Aib]QGTFTSDLSKYLDSRRARDFVK([γGlu-γGlu-AEEA-AEEA-γGlu-C18 diacid])WLLST-NH2
modifications: N-terminus assumed
SMILES: CC(C)C[C@H](NC(=O)[C@H](Cc1ccc(O)cc1)NC(=O)[C@H](CCCCN)NC(=O)[C@H](CO)NC(=O)[C@H](CC(C)C)NC(=O)[C@H](CC(=O)O)NC(=O)[C@H](CO)NC(=O)[C@@H](NC(=O)[C@H](Cc1ccccc1)NC(=O)[C@@H](NC(=O)CNC(=O)[C@H](CCC(N)=O)NC(=O)C(C)(C)NC(=O)[C@@H](N)Cc1c[nH]cn1)[C@@H](C)O)[C@@H](C)O)C(=O)N[C@@H](CC(=O)O)C(=O)N[C@@H](CO)C(=O)N[C@@H](CCCNC(=N)N)C(=O)N[C@@H](CCCNC(=N)N)C(=O)N[C@@H](C)C(=O)N[C@@H](CCCNC(=N)N)C(=O)N[C@@H](CC(=O)O)C(=O)N[C@@H](Cc1ccccc1)C(=O)N[C@H](C(=O)N[C@@H](CCCCNC(=O)CC[C@H](NC(=O)CC[C@H](NC(=O)COCCOCCNC(=O)COCCOCCNC(=O)CC[C@H](NC(=O)CCCCCCCCCCCCCCCCC(=O)O)C(=O)O)C(=O)O)C(=O)O)C(=O)N[C@@H](Cc1c[nH]c2ccccc12)C(=O)N[C@@H](CC(C)C)C(=O)N[C@@H](CC(C)C)C(=O)N[C@@H](CO)C(=O)N[C@H](C(N)=O)[C@@H](C)O)C(C)C
B4: N^ε29-[(4S)-4-carboxy-4-[[(4S)-4-carboxy-4-[[2-[2-[2-[[2-[2-[2-[[(4S)-4-carboxy-4-(17-carboxyheptadecanoylamino)butanoyl]amino]ethoxy]ethoxy]acetyl]amino]ethoxy … (peptide)
peptide: H[Aib]QGTFTSDLSKYLDKRRAEDFVQWLLSK([γGlu-γGlu-AEEA-AEEA-γGlu-C18 diacid])-NH2
modifications: N-terminus assumed
SMILES: CC(C)C[C@H](NC(=O)[C@H](CC(C)C)NC(=O)[C@H](Cc1c[nH]c2ccccc12)NC(=O)[C@H](CCC(N)=O)NC(=O)[C@@H](NC(=O)[C@H](Cc1ccccc1)NC(=O)[C@H](CC(=O)O)NC(=O)[C@H](CCC(=O)O)NC(=O)[C@H](C)NC(=O)[C@H](CCCNC(=N)N)NC(=O)[C@H](CCCNC(=N)N)NC(=O)[C@H](CCCCN)NC(=O)[C@H](CC(=O)O)NC(=O)[C@H](CC(C)C)NC(=O)[C@H](Cc1ccc(O)cc1)NC(=O)[C@H](CCCCN)NC(=O)[C@H](CO)NC(=O)[C@H](CC(C)C)NC(=O)[C@H](CC(=O)O)NC(=O)[C@H](CO)NC(=O)[C@@H](NC(=O)[C@H](Cc1ccccc1)NC(=O)[C@@H](NC(=O)CNC(=O)[C@H](CCC(N)=O)NC(=O)C(C)(C)NC(=O)[C@@H](N)Cc1c[nH]cn1)[C@@H](C)O)[C@@H](C)O)C(C)C)C(=O)N[C@@H](CO)C(=O)N[C@@H](CCCCNC(=O)CC[C@H](NC(=O)CC[C@H](NC(=O)COCCOCCNC(=O)COCCOCCNC(=O)CC[C@H](NC(=O)CCCCCCCCCCCCCCCCC(=O)O)C(=O)O)C(=O)O)C(=O)O)C(N)=O
B5: N^ε28-[(4S)-4-carboxy-4-[[2-[2-[2-[[2-[2-[2-[[(4S)-4-carboxy-4-[[(4S)-4-carboxy-4-(17-carboxyheptadecanoylamino)butanoyl]amino]butanoyl]amino]ethoxy]ethoxy]acet … (peptide)
peptide: H[Aib]HGTFTSDLSKYLESRRAREFVQWLLK([γGlu-AEEA-AEEA-γGlu-γGlu-C18 diacid])T-NH2
modifications: N-terminus assumed
SMILES: CC(C)C[C@H](NC(=O)[C@H](Cc1ccc(O)cc1)NC(=O)[C@H](CCCCN)NC(=O)[C@H](CO)NC(=O)[C@H](CC(C)C)NC(=O)[C@H](CC(=O)O)NC(=O)[C@H](CO)NC(=O)[C@@H](NC(=O)[C@H](Cc1ccccc1)NC(=O)[C@@H](NC(=O)CNC(=O)[C@H](Cc1c[nH]cn1)NC(=O)C(C)(C)NC(=O)[C@@H](N)Cc1c[nH]cn1)[C@@H](C)O)[C@@H](C)O)C(=O)N[C@@H](CCC(=O)O)C(=O)N[C@@H](CO)C(=O)N[C@@H](CCCNC(=N)N)C(=O)N[C@@H](CCCNC(=N)N)C(=O)N[C@@H](C)C(=O)N[C@@H](CCCNC(=N)N)C(=O)N[C@@H](CCC(=O)O)C(=O)N[C@@H](Cc1ccccc1)C(=O)N[C@H](C(=O)N[C@@H](CCC(N)=O)C(=O)N[C@@H](Cc1c[nH]c2ccccc12)C(=O)N[C@@H](CC(C)C)C(=O)N[C@@H](CC(C)C)C(=O)N[C@@H](CCCCNC(=O)CC[C@H](NC(=O)COCCOCCNC(=O)COCCOCCNC(=O)CC[C@H](NC(=O)CC[C@H](NC(=O)CCCCCCCCCCCCCCCCC(=O)O)C(=O)O)C(=O)O)C(=O)O)C(=O)N[C@H](C(N)=O)[C@@H](C)O)C(C)C
B6: N^ε28-[(4S)-4-carboxy-4-[[(4S)-4-carboxy-4-[[(2S)-2-[[(2S)-4-carboxy-2-[[(2S)-2-[[(4S)-4-carboxy-4-[[(4S)-4-carboxy-4-(17-carboxyheptadecanoylamino)butanoyl]ami … (peptide)
peptide: H[Aib]QGTFTSDLSKYLESKRAREFVQWLLK([γGlu-γGlu-Ser-Glu-Ser-γGlu-γGlu-C18 diacid])T-NH2
B7: N^ε29-[(4S)-4-carboxy-4-[[(4S)-4-carboxy-4-[[2-[2-[2-[[2-[2-[2-[[(4S)-4-carboxy-4-(17-carboxyheptadecanoylamino)butanoyl]amino]ethoxy]ethoxy]acetyl]amino]ethoxy … (peptide)
peptide: H[Aib]QGTFTSDLSKYLDTRRAQDFVRWLLSK([γGlu-γGlu-AEEA-AEEA-γGlu-C18 diacid])-NH2
modifications: N-terminus assumed
SMILES: CC(C)C[C@H](NC(=O)[C@H](CC(C)C)NC(=O)[C@H](Cc1c[nH]c2ccccc12)NC(=O)[C@H](CCCNC(=N)N)NC(=O)[C@@H](NC(=O)[C@H](Cc1ccccc1)NC(=O)[C@H](CC(=O)O)NC(=O)[C@H](CCC(N)=O)NC(=O)[C@H](C)NC(=O)[C@H](CCCNC(=N)N)NC(=O)[C@H](CCCNC(=N)N)NC(=O)[C@@H](NC(=O)[C@H](CC(=O)O)NC(=O)[C@H](CC(C)C)NC(=O)[C@H](Cc1ccc(O)cc1)NC(=O)[C@H](CCCCN)NC(=O)[C@H](CO)NC(=O)[C@H](CC(C)C)NC(=O)[C@H](CC(=O)O)NC(=O)[C@H](CO)NC(=O)[C@@H](NC(=O)[C@H](Cc1ccccc1)NC(=O)[C@@H](NC(=O)CNC(=O)[C@H](CCC(N)=O)NC(=O)C(C)(C)NC(=O)[C@@H](N)Cc1c[nH]cn1)[C@@H](C)O)[C@@H](C)O)[C@@H](C)O)C(C)C)C(=O)N[C@@H](CO)C(=O)N[C@@H](CCCCNC(=O)CC[C@H](NC(=O)CC[C@H](NC(=O)COCCOCCNC(=O)COCCOCCNC(=O)CC[C@H](NC(=O)CCCCCCCCCCCCCCCCC(=O)O)C(=O)O)C(=O)O)C(=O)O)C(N)=O

How the values were obtained:
human GLP-1 receptor [1] = molecular target: T1, human GLP-1 receptor (human, UniProt P43220 24-463); experiment: cell-based or functional assay
human glucagon receptor = human glucagon receptor (human, UniProt P47871 26-477); experiment: cell-based or functional assay
Chain of human glucagon receptor (P47871 26-477): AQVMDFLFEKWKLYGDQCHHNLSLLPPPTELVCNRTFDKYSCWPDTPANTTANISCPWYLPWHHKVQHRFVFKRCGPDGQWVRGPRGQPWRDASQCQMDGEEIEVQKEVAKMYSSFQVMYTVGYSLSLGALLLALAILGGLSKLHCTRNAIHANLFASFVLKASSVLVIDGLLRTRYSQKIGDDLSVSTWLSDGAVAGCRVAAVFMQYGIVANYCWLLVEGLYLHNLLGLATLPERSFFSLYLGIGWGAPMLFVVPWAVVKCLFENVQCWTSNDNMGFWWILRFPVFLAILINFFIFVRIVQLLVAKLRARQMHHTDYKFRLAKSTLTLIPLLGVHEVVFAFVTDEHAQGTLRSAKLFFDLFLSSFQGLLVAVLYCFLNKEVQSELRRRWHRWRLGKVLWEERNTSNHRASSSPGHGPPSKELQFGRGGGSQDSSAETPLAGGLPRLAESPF

human GLP-1 receptor [2] = molecular target: T1, human GLP-1 receptor; experiment: displacement of 125I-GLP-1(7-36)NH2, membranes with human GLP-1R, SPA
Experimental: The receptor binding of each compound to the human GLP-1 receptor was measured in a displacement binding assay. […] Each derivative was added in a series of concentrations to isolated membranes containing the human GLP-1 receptor and displacement of the labelled ligand was monitored. The receptor binding was reported as the concentration at which half of the labelled ligand was displaced from the receptor, the IC₅₀ value.

Binder | EC50 GLP-1R, CRE luciferase reporter gene assay in BHK cells (human GLP-1 receptor [1]) | EC50 GlucR, CRE luciferase reporter gene assay in BHK cells (human glucagon receptor) | IC50 (human GLP-1 receptor [2])
B1 | 0.004 nM | 0.016 nM | –
B2 | 0.044 nM | 0.097 nM | –
B3 | 0.006 nM | 0.06 nM | –
B4 | 0.028 nM | 0.599 nM | –
B5 | 0.0357 nM | 0.0048 nM | 1.4 nM
B6 | 0.004 nM | – | 0.2 nM
B7 | 0.02 nM | 0.19 nM | –

Reference: patent US20150374794A1 (Novo Nordisk, published 2015)
